Data from patent publication US20210388087A1 (Chugai, published 2021).

T1: Human CD3eg linker (human)
T1 construct: Single chain: epsilon and gamma subunits of human CD3 joined by a 29-mer linker, Flag-tag at the C-terminus; also called recombinant human CD3
T1 chain: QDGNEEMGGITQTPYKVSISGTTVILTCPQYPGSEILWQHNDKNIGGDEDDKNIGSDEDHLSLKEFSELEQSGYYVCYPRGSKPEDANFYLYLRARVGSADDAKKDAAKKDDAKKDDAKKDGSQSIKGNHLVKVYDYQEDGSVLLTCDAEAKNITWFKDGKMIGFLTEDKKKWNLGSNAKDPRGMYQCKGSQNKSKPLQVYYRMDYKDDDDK


Target: T1, Human CD3eg linker
Experiment: Biacore SPR, vs template H183/L072

Row | fold change of affinity | Binder
1 | 0.1 fold | H183/L072 VH W33Y (antibody, name in Kabat numbering, V domains shown) VH: QVQLVESGGGLVQPGRSLRLSCAASGFTFSNAYMHWVRQAPGKGLEWVAQIKDKGNAYAAYYAPSVKGRFTISRDDSKNSIYLQMNSLKTEDTAVYYCHYVHYASASTVLPAFGVDAWGQGTTVTVSS VL: DIVMTQSPLSLPVTPGEPASISCQASQELVHMNRNTYLHWYQQKPGQAPRLLIYKVSNRFPGVPDRFSGSGSGTDFTLKISRVEAEDVGVYYCAQGTSVPFTFGQGTKLEIK
2 | 0.4 fold | H183/L072 VH Y55A (antibody, name in Kabat numbering, V domains shown) VH: QVQLVESGGGLVQPGRSLRLSCAASGFTFSNAWMHWVRQAPGKGLEWVAQIKDKGNAAAAYYAPSVKGRFTISRDDSKNSIYLQMNSLKTEDTAVYYCHYVHYASASTVLPAFGVDAWGQGTTVTVSS VL: DIVMTQSPLSLPVTPGEPASISCQASQELVHMNRNTYLHWYQQKPGQAPRLLIYKVSNRFPGVPDRFSGSGSGTDFTLKISRVEAEDVGVYYCAQGTSVPFTFGQGTKLEIK
3 | 0.4 fold | H183/L072 VH Y55D (antibody, name in Kabat numbering, V domains shown) VH: QVQLVESGGGLVQPGRSLRLSCAASGFTFSNAWMHWVRQAPGKGLEWVAQIKDKGNADAAYYAPSVKGRFTISRDDSKNSIYLQMNSLKTEDTAVYYCHYVHYASASTVLPAFGVDAWGQGTTVTVSS VL: DIVMTQSPLSLPVTPGEPASISCQASQELVHMNRNTYLHWYQQKPGQAPRLLIYKVSNRFPGVPDRFSGSGSGTDFTLKISRVEAEDVGVYYCAQGTSVPFTFGQGTKLEIK
4 | 0.8 fold | H183/L072 VH Y55F (antibody, name in Kabat numbering, V domains shown) VH: QVQLVESGGGLVQPGRSLRLSCAASGFTFSNAWMHWVRQAPGKGLEWVAQIKDKGNAFAAYYAPSVKGRFTISRDDSKNSIYLQMNSLKTEDTAVYYCHYVHYASASTVLPAFGVDAWGQGTTVTVSS VL: DIVMTQSPLSLPVTPGEPASISCQASQELVHMNRNTYLHWYQQKPGQAPRLLIYKVSNRFPGVPDRFSGSGSGTDFTLKISRVEAEDVGVYYCAQGTSVPFTFGQGTKLEIK
5 | 0.6 fold | H183/L072 VH Y55G (antibody, name in Kabat numbering, V domains shown) VH: QVQLVESGGGLVQPGRSLRLSCAASGFTFSNAWMHWVRQAPGKGLEWVAQIKDKGNAGAAYYAPSVKGRFTISRDDSKNSIYLQMNSLKTEDTAVYYCHYVHYASASTVLPAFGVDAWGQGTTVTVSS VL: DIVMTQSPLSLPVTPGEPASISCQASQELVHMNRNTYLHWYQQKPGQAPRLLIYKVSNRFPGVPDRFSGSGSGTDFTLKISRVEAEDVGVYYCAQGTSVPFTFGQGTKLEIK
6 | 0.6 fold | H183/L072 VH Y55E (antibody, name in Kabat numbering, V domains shown) VH: QVQLVESGGGLVQPGRSLRLSCAASGFTFSNAWMHWVRQAPGKGLEWVAQIKDKGNAEAAYYAPSVKGRFTISRDDSKNSIYLQMNSLKTEDTAVYYCHYVHYASASTVLPAFGVDAWGQGTTVTVSS VL: DIVMTQSPLSLPVTPGEPASISCQASQELVHMNRNTYLHWYQQKPGQAPRLLIYKVSNRFPGVPDRFSGSGSGTDFTLKISRVEAEDVGVYYCAQGTSVPFTFGQGTKLEIK
7 | 0.7 fold | H183/L072 VH Y55H (antibody, name in Kabat numbering, V domains shown) VH: QVQLVESGGGLVQPGRSLRLSCAASGFTFSNAWMHWVRQAPGKGLEWVAQIKDKGNAHAAYYAPSVKGRFTISRDDSKNSIYLQMNSLKTEDTAVYYCHYVHYASASTVLPAFGVDAWGQGTTVTVSS VL: DIVMTQSPLSLPVTPGEPASISCQASQELVHMNRNTYLHWYQQKPGQAPRLLIYKVSNRFPGVPDRFSGSGSGTDFTLKISRVEAEDVGVYYCAQGTSVPFTFGQGTKLEIK
8 | 0 fold | H183/L072 VH Y55I (antibody, name in Kabat numbering, V domains shown) VH: QVQLVESGGGLVQPGRSLRLSCAASGFTFSNAWMHWVRQAPGKGLEWVAQIKDKGNAIAAYYAPSVKGRFTISRDDSKNSIYLQMNSLKTEDTAVYYCHYVHYASASTVLPAFGVDAWGQGTTVTVSS VL: DIVMTQSPLSLPVTPGEPASISCQASQELVHMNRNTYLHWYQQKPGQAPRLLIYKVSNRFPGVPDRFSGSGSGTDFTLKISRVEAEDVGVYYCAQGTSVPFTFGQGTKLEIK
